# Results as given in patent US9315563B2, “Peptides that inhibit angiotensin converting enzyme and peptides with antioxidant activity purified from ovotransferrin and methods of producing and using the same” (The Governors of the University of Alberta, priority 2009, dated 2016).
# B1: Unhydrolyzed ovotransferrin: egg ovotransferrin, un-hydrolyzed parent protein (protein, UniProt P02789 20-705, looked up)
# Ovotransferrin: APPKSVIRWCTISSPEEKKCNNLRDLTQQERISLTCVQKATYLDCIKAIANNEADAISLDGGQAFEAGLAPYKLKPIAAEVYEHTEGSTTSYYAVAVVKKGTEFTVNDLQGKTSCHTGLGRSAGWNIPIGTLLHRGAIEWEGIESGSVEQAVAKFFSASCVPGATIEQKLCRQCKGDPKTKCARNAPYSGYSGAFHCLKDGKGDVAFVKHTTVNENAPDQKDEYELLCLDGSRQPVDNYKTCNWARVAAHAVVARDDNKVEDIWSFLSKAQSDFGVDTKSDFHLFGPPGKKDPVLKDLLFKDSAIMLKRVPSLMDSQLYLGFEYYSAIQSMRKDQLTPSPRENRIQWCAVGKDEKSKCDRWSVVSNGDVECTVVDETKDCIIKIMKGEADAVALDGGLVYTAGVCGLVPVMAERYDDESQCSKTDERPASYFAVAVARKDSNVNWNNLKGKKSCHTAVGRTAGWVIPMGLIHNRTGTCNFDEYFSEGCAPGSPPNSRLCQLCQGSGGIPPEKCVASSHEKYFGYTGALRCLVEKGDVAFIQHSTVEENTGGKNKADWAKNLQMDDFELLCTDGRRANVMDYRECNLAEVPTHAVVVRPEKANKIRDLLERQEKRFGVNGSEKSKFMMFESQNKDLLFKDLTKCLFKVREGTTYKEFLGDKFYTVISSLKTCNPSDILQMCSFLEGK
# Assay: ORAC-FL assay (oxygen radical absorbance capacity)
# Conditions: ovotransferrin hydrolysates
# Method: Briefly, 80 mM AAPH and 200 nM fluorescein in 75 mM phosphate buffer at pH 7.4 were prepared for each experiment. For each run, 20 μL of antioxidant, and 80 μL of phosphate buffer (or 100 μL of Trolox standard solutions at final concentrations of 1 to 8 μM) were placed in wells of a 96-well microplate, followed by addition of 50 μL of the fluorescein solution. The mixture was preincubated for 15 min at 37° C. 50 μL of AAPH solution was added rapidly using a multichannel pipet. The microplate was immediately placed in a Fluoroskan Ascent microplate reader (Thermo Electron Corporation) with 485-P excitation and 538-P emission filters and the fluorescence recorded every minute for 100 min. All readings were recorded using Fluoroskan Ascent software. The area under the curve of fluorescence decay (AUC) was calculated using Graphpad prism software (trial version). Regression equations between AUC and antioxidant concentrations were calculated for all the samples. The ORAC value was calculated by dividing the slope of sample regression curve by the slope of Trolox regression curve. Final ORAC values were expressed as μmol of Trolox equivalent/mg of protein or peptide.
molecule,measurement,value
B1,ORAC,0.21 ± 0.04 µmol/mg
